Data: patent US20250027939A1

Target: S protein (UniProt P61823)
Experiment: affinity column capture; EGFP fluorescence of column fractions as percent of input

Chain of UniProt P61823 (P61823 47-150): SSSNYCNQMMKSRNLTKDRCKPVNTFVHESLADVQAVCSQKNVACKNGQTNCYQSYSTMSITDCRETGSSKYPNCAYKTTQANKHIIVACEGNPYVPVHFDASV

- percent of input target protein bound: 50%
Substance: S tag-bearing target protein (EGFP)
